According to article PMC5458090, “Decoding NADPH oxidase 4 expression in human tumors” (Redox Biology, 2017):

What was measured:
[1] = target: T1, MycDDK-HsNOX4 (human NADPH oxidase 4) (Homo sapiens, UniProt Q9NPH5); assay: Western blot; whole-cell extracts (RIPA buffer) loaded without boiling on a 4-20% Tris glycine gel, transferred to nitrocellulose, incubated with primary antibody overnight; fibroblasts treated with TGF-β1, COV362 cells with NOX4 siRNA; conditions: one partner purified
T1 construct: NADPH oxidase 4 (NOX4), human, from plasmid pCMV-MycDDK-HsNOX4; also called MycDDK-NOX4; source: HEK293, stably (clones WT1, WT2) or transiently transfected; in whole-cell extract or on/in cells; not shown: Myc, N-terminal, kept; DDK, N-terminal, kept
T1 sequence (Q9NPH5 whole entry): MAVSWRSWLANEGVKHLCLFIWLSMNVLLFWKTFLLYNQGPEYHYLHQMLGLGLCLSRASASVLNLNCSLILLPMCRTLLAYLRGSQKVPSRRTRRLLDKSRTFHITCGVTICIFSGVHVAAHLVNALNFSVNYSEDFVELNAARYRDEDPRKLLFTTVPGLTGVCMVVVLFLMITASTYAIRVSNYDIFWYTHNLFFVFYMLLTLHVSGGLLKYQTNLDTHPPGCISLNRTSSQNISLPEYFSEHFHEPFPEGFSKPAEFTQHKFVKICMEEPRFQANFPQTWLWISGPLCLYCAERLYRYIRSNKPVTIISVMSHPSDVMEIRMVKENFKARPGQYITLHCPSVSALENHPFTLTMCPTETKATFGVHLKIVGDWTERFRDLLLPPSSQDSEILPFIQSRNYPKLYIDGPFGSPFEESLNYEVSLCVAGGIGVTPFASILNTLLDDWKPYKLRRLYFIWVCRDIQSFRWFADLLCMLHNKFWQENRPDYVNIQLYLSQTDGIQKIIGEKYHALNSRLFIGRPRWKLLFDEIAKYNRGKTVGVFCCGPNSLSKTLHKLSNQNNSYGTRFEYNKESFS

endogenous human NOX4 = target: T2, endogenous human NOX4 (Homo sapiens (endogenous), UniProt Q9NPH5); assay: as above; conditions: one partner purified
T2 construct: NADPH oxidase 4 (NOX4), endogenous in human cell lines and human tissues; also called endogenous NOX4; NOX4 protein; source: endogenous: CCL-210 lung fibroblast and COV362 whole-cell extracts; COV362 and OVCAR3 membrane fractions; COV362 cells; formalin-fixed human tissues (BioMax TMA MC6163)
T2 sequence (Q9NPH5 whole entry): as above

B1: NOX4 rabbit monoclonal antibody 47-6 (antibody, V domains shown)
VH: QSVEESGGRLVTPGGSLTLTCTVSGIDLSSNSVTWVRQAPGEGLKWIGIISDSHRAYYATWAKGRFTISKTSSTTVDLKMTSLTTGDTATYFCVVGNNIWGPGTLVTVSS
VL: AQVLTQTASPVSAAVGGTVTINCQASESVYSDNRLSWFQQKPGQPPKLLIYYASTLASGVPSRVKGSGSGTQFTLTISDLECDDAATYYCAGGFSNNIYEFGGGTEVVVK
notes: Rabbit monoclonal raised against fixed NOX4-overexpressing HEK293 cells and a peptide of human NOX4 amino acids 209-282 (E-loop); also called mAb 47-6; 47-6 mAb
binding result [1]: binds
binding result (endogenous human NOX4): binds
